# Test results published in patent US20210324059A1 (AMLO BIOSCIENCES, published 2021).
# No end group written: not given here.
# T1: human Ambra-1 (human, UniProt Q9C0C7 1-1298)
# T1 construct: Endogenous protein in formalin fixed paraffin embedded human skin and melanoma sections (immunohistochemistry)
# T1 sequence: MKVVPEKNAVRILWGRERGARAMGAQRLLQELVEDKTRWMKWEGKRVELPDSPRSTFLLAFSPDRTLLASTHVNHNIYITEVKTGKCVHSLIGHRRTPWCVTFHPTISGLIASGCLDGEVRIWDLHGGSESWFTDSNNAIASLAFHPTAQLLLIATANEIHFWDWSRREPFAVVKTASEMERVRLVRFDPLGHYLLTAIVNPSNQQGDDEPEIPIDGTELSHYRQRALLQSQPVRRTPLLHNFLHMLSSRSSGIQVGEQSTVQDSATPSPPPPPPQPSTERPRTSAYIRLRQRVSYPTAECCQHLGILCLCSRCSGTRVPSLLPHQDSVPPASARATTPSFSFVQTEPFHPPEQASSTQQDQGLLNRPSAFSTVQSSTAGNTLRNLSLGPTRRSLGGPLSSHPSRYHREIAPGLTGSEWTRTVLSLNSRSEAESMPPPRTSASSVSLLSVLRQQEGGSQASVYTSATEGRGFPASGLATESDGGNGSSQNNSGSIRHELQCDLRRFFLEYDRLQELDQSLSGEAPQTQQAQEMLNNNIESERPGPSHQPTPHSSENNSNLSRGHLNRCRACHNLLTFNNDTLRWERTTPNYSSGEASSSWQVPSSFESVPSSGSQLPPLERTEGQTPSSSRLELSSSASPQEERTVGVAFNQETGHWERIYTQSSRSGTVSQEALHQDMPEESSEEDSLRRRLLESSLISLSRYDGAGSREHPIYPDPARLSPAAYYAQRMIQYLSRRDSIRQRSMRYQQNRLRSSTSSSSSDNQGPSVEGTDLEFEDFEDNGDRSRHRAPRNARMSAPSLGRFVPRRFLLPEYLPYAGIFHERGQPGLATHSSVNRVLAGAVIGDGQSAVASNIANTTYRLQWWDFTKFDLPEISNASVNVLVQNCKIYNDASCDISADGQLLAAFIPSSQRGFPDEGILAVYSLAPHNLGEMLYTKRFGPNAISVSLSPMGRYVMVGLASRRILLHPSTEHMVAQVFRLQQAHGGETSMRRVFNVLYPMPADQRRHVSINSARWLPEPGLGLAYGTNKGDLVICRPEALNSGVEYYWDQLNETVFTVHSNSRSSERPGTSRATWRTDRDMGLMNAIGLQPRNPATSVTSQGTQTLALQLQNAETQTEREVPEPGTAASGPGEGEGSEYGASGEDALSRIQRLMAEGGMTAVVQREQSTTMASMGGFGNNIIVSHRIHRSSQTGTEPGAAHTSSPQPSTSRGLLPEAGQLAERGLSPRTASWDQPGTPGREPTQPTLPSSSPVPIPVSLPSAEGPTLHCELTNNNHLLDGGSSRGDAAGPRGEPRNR
# T2: Ambra-1 peptide (synthesized peptide to which anti-Ambra-1 antibodies were raised) (human, also: conjugated to carrier protein (BSA), site not given here)
# T2 construct: It was tested in native and denatured form; also called Ambra-1 antigen
# T2 peptide: CGGSSRGDAAGPRGEPRNR
# B1: full length chimeric antibody AbD33473 with an IgG1 mouse Fc region (antibody, V domains shown)
# VH: EVQLVQSGAEVKKPGESLKISCKGSGYSFSSYWIHWVRQMPGKGLEWMGTIFPSRSYTTYSPSFQGQVTISADKSISTAYLQWSSLKASDTAMYYCARDTPSTALKSPFDYWGQGTLVTVSS
# VL: DIVLTQPPSVSGAPGQRVTISCSGSSSNIGYNYVYWYQQLPGTAPKLLIYENNKRPSGVPDRFSGSKSGTSASLAITGLQAEDEADYYCSSWDSHSNSYVFGGGTKLTVLG
# notes: also called recombinant monoclonal antibody AbD33473; HuCAL antibody AbD33473
# B2: full length chimeric antibody AbD33047 with an IgG1 mouse Fc region (antibody, V domains shown)
# VH: QVQLVQSGAEVKKPGASVKVSCKASGYTFNDYYIHWVRQAPGQGLEWMGVISPNSGKTNYAQKFQGRVTMTRDTSISTAYMELSRLRSEDTAVYYCARDLYPDSSAFDIWGQGTLVTVSS
# VL: DIELTQPPSVSVSPGQTASITCSGDNLGDKYAHWYQQKPGQAPVLVIYDDNERPSGIPERFSGSNSGNTATLTISGTQAEDEADYYCQSYDSGNRVFGGGTKLTVLG
# notes: also called recombinant monoclonal antibody AbD33047; HuCAL antibody AbD33047
# B3: recombinant human HuCAL antibody fragment for Ambra-1 Abd33473.1 (Fab)
# heavy: EVQLVQSGAEVKKPGESLKISCKGSGYSFSSYWIHWVRQMPGKGLEWMGTIFPSRSYTTYSPSFQGQVTISADKSISTAYLQWSSLKASDTAMYYCARDTPSTALKSPFDYWGQGTLVTVSSASTKGPSVFPLAPSSKSTSGGTAALGCLVKDYFPEPVTVSWNSGALTSGVHTFPAVLQSSGLYSLSSVVTVPSSSLGTQTYICNVNHKPSNTKVDKKVEPKSRTPEMPVLENRAAQGDITAPGGARRLTGDQTAALRDSLSDKPAKNIILLIGDGMGDSEITAARNYAEGAGGFFKGIDALPLTGQYTHYALNKKTGKPDYVTDSAASATAWSTGVKTYNGALGVDIHEKDHPTILEMAKAAGLATGNVSTAELQDATPAALVAHVTSRKCYGPSATSEKCPGNALEKGGKGSITEQLLNARADVTLGGGAKTFAETATAGEWQGKTLREQAQARGYQLVSDAASLNSVTEANQQKPLLGLFADGNMPVRWLGPKATYHGNIDKPAVTCTPNPQRNDSVPTLAQMTDKAIELLSKNEKGFFLQVEGASIDKQDHAANPCGQIGETVDLDEAVQRALEFAKKEGNTLVIVTADHAHASQIVAPDTKAPGLTQALNTKDGAVMVMSYGNSEEDSQEHTGSQLRIAAYGPHAANVVGLTDQTDLFYTMKAALGLKDYKDDDDKHHHHHH
# light: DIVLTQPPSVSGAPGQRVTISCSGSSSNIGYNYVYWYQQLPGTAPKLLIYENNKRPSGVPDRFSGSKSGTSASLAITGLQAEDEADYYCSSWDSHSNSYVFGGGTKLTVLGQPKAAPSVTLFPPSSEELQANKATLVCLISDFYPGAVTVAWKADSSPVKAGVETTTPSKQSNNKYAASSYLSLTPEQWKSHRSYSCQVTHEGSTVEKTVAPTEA
# notes: also called HuCAL antibody 33473
# Tests used:
# human Ambra-1 = target: T1, human Ambra-1; experiment: automated immunohistochemistry, DAB chromogen
# [1] = target: T3, N1-CD33-His6 (the ectodomain of human CD33 fused to the N1 domain of the g3p filamentous phage M13) (filamentous phage M13; human, UniProt P20138 18-259); experiment: quality control ELISA on immobilized control protein
# T3 construct: extracellular domain; Control protein of the QC ELISA, used for calculation of background; not shown: N1 domain of g3p of filamentous phage M13
# T3 sequence (P20138 18-259, tags left off): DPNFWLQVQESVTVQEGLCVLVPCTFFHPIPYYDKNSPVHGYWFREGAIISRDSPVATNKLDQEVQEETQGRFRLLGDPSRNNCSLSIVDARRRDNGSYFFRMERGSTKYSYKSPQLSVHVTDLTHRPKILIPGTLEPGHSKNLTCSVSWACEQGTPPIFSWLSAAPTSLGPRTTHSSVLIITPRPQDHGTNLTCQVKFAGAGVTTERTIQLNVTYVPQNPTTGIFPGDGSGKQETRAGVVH
# [2] = target: T2, Ambra-1 peptide (synthesized peptide to …); experiment: quality control ELISA, chimeric human/mouse IgG1 on immobilized Amb1-TRF and Amb1-BSA (Ambra-1 peptide conjugates), signal over background
# [3] = target: T3, N1-CD33-His6 (the ectodomain of human …); experiment: quality control ELISA on immobilized control protein; remark: listed apart in the source
# [4] = target: T3, N1-CD33-His6 (the ectodomain of human …); experiment: QC ELISA on immobilized control protein
binder,measurement,setting,value
B1,binding result,human Ambra-1,binds
same,binding result,[1],no binding
same,binding result,[2],binds
B2,binding result,[3],no binding
B3,binding result,[4],no binding
